Experimental data from the supplement of paper PMC9170038.

Assays:
MS2 coat protein [1] = test: apparent KD of MS2 coat protein; designed switch direction (-1 OFF switch, 1 ON switch): 1; higher = weaker reporter binding
Procedure, shortened: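 The apparent KD reported per design is the median over clusters of curve fits to normalised cluster fluorescence. The RNA switches were transcribed on Illumina chips by stalled E. coli RNA polymerase. SNAP-549-labelled MS2 coat protein was titrated from 0.7 or 1.5 nM, doubling up to 3 µM, in Tris-HCl pH 7.5 buffer containing KCl, MgCl2, BSA, DTT, tRNA and Tween-20, with no input, 200 uM small-molecule ligand, or an oligonucleotide input.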

MS2 coat protein [2] = test: apparent KD of MS2 coat protein; higher = weaker reporter binding; details: Eterna round: R107
Procedure, shortened: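 Designed RNA switches were transcribed on-chip from Illumina sequencing clusters. SNAP-549-labelled MS2 coat protein was titrated onto them in twofold steps from 0.7 or 1.5 nM to 3 µM in 100 mM Tris-HCl pH 7.5, 80 mM KCl, 4 mM MgCl2, either without or with constant ligand. Apparent KD reflects the per-design median of normalised cluster binding-curve fits.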

[3] = input ligand: microRNA oligo, concentration not stated
[4] = Eterna round: R95, input ligand: microRNA oligo, concentration not stated
[5] = Eterna round: R95, input ligand: FMN 200 uM
[6] = Eterna round: R95, input ligand: none
[7] = input ligand: theophylline 20 uM
[8] = input ligand: tryptophan 2.4 mM
[9] = input ligand: theophylline 2 mM

| Sequence | apparent KD of MS2 coat protein (MS2 coat protein [1]; input ligand: FMN 200 uM) | apparent KD of MS2 coat protein (MS2 coat protein [1]; [3]) | apparent KD of MS2 coat protein (MS2 coat protein [1]; input ligand: none) | also measured |
| --- | --- | --- | --- | --- |
| CGUCGUUUGAUAGGAUAUCGCUUUCCAUGAGGAUCACCCAUGUUUACCACGCUGGUUUUUCUUUCCGAGAAGGAUUCUGAUGUU [salish99_SSNG02_r04_025] (Eterna round: R96, puzzle: Same State NG 2) | 169 nM | 143 nM | 153 nM |  |
| GUUAUACAUGAGGAUCACCCAUGUCAAUGUAGUCGAGGAUAUGGGUAGCUAUGAGGCGUACUAGAAGGCGAGGAGU [JL-ss1-3.16 ViennaUCT mod] (puzzle: Same State 1) |  |  |  | apparent KD of MS2 coat protein (MS2 coat protein [1]; [4]): 90.4 nM |
| AUUAAACAUGAGGAUCACCCAUGUCAACAAAGUCGAGGAUAUGGGCAAAUAUAAUAAGAACCAGAAGGCGAAUAAU [salish99_ss1_r3_059] (puzzle: Same State 1) |  |  |  | apparent KD of MS2 coat protein (MS2 coat protein [1]; [5]): 28 nM; apparent KD of MS2 coat protein (MS2 coat protein [1]; [4]): 190 nM; apparent KD of MS2 coat protein (MS2 coat protein [1]; [6]): 227 nM |
| GGUCCAUCAUGAGGAUAUGGCACCUUAUUGGUGCCAGAAGGCAUGUAAAUUAUAAUAAAACAUGAGGAUCACCCAUGUUGGACC [Eli NG1ss - 97] (Eterna round: R96, puzzle: Same State NG 1) | 857 nM | 19.5 nM | 78.4 nM |  |
| GCUCGCACGAUGACCCACAUGAGGAUCACCCAUGUGUGUGGGCAGGAUAUCUAGAUUAAGGAUGUAGAGAAGGGUUGAGCGAGC [SameState NG3 #24] (Eterna round: R96, puzzle: Same State NG 3) | 513 nM | 133 nM | 138 nM |  |
| AGUCCAGCGAAAGCUGGACAAAGACAUGUACAUGAGGAUCACCCAUGUCAUGUACAAGUUUUUUGCUCGUCUUAUAA (puzzle: Sensor for hsa-mir-208a) |  |  |  | apparent KD of MS2 coat protein (MS2 coat protein [1]; [5]): 34.4 nM; apparent KD of MS2 coat protein (MS2 coat protein [1]; [4]): 12.7 nM; apparent KD of MS2 coat protein (MS2 coat protein [1]; [6]): 35.8 nM |
| UGUUAGUAGUGAGGAUAUACAUACACCUUACAUGAGGAUCACCCAUGUUUUAAGAUUGAUAGAUAGUAGAAGGCACAUGAUGAU [JR_SSNG2_Sub042] (Eterna round: R96, puzzle: Same State NG 2) |  | 38.2 nM |  |  |
| GGUACAAAUACAGGAUAUGCUAUCCUUUGGGUAGCAGAAGGGUGGUAACAUGAGGAUCACCCAUGUGUGCCAGGGCGUGAGCCC [JL SSNG1 1.98] (Eterna round: R96, puzzle: Same State NG 1) | 387 nM | 206 nM | 657 nM |  |
| UUGCGCUGUCGAGAGGAUAUGCGGUGUUGGACAUGAGGAUCACCCAUGUUAGCGAUUGCUUUACGGUAGAAGGCUCUUCAGCUGC [salish99_ss2_r3_098] (Eterna round: R96, puzzle: Same State 2) | 74 nM | 50.1 nM | 82.8 nM |  |
| UGGAUCUAGGCUUGCCUGGGUCCAUGUUGACAUGAGGAUCACCCAUGUGUAUUUUAUAAGCUUUUUGUUUGUCAACA [JL A Humble Attempt mod 7] (puzzle: Sensor for hsa-mir-208a) |  |  |  | apparent KD of MS2 coat protein (MS2 coat protein [1]; [5]): 37 nM; apparent KD of MS2 coat protein (MS2 coat protein [1]; [6]): 37.6 nM |
| GCGGAACGGGCCGACAUGAGGAUCACCCAUGUGGCCUCAUGUCAGGAUAUCGGGAAGAAGAAAACCGAGAAGGGACGGUGACGC [AK SSNG3-V2-32] (Eterna round: R96, puzzle: Same State NG 3) | 8.18 nM | 29.8 nM | 22.2 nM |  |
| UUCACCUUUUUUAACAUGAGGAUCACCCAUGUAUAUUGUACGUAGGAUAUCGAUGCUUUUUUUUUCGAGAAGGACGAUGUAAGU [JR_SSND3_Sub051] (Eterna round: R96, puzzle: Same State NG 3) | 38.6 nM | 34.2 nM | 37.5 nM |  |
| GCUACCAUUGAUGCCUACAUGAGGAUCACCCAUGUAUGUAGGCAGGAUAUCGAUUGCAAAGCGAUCGAGAAGGGCUUAGGUAGC [Mat - Same State NG 3 - JL Mod - D93] (Eterna round: R96, puzzle: Same State NG 3) | 56 nM | 103 nM | 149 nM |  |
| CUAGCGCAUGCAGGAUAUCUGGUGUAUGCCUCGAGAUAACAUGAGGAUCACCCAUGUCCGCUCAAAGAGAAGGGCAUGCAAAUG [Eternabot solution 8] (Eterna round: R96, puzzle: Same State NG 2) | 1180 nM | 177 nM | 618 nM |  |
| UUAAUAAAGUAAGGAUAUACAUGAGGAUCACUCGUAGAAGGUACUAAACAUGAGGAUCACCCAUGUACCGGUCCGUAGACUGGA [Mat - Same State NG 1 - JL mod - D1] (Eterna round: R96, puzzle: Same State NG 1) | 844 nM | 108 nM | 364 nM |  |
| AUCGUACCUAGUGAUACCAGCAAGUGAUCAUAACAUGAGGAUCACCCAUGUAAUCAGUGAUGCCCUUGGCAGCAUAAUCGUUACA [Same State - Theophylline B (Freestyle 1)] |  |  |  | apparent KD of MS2 coat protein (MS2 coat protein [2]; input ligand: arginine 13.2 mM): 118 nM; apparent KD of MS2 coat protein (MS2 coat protein [2]; [7]): 228 nM; apparent KD of MS2 coat protein (MS2 coat protein [2]; [8]): 173 nM |
| UUUUUCGUAGGUUAAAGUUUAGAAACUGAAGGAGCGUGGUAAUACACAGGUAGGUCGCAGAUUUUACAUGAGGAUCACCCAUGUU [JR_ExcArginiA_Sub012] |  |  |  | apparent KD of MS2 coat protein (MS2 coat protein [2]; input ligand: arginine 13.2 mM): 26.9 nM; apparent KD of MS2 coat protein (MS2 coat protein [2]; input ligand: none): 24.5 nM; apparent KD of MS2 coat protein (MS2 coat protein [2]; [7]): 20.7 nM; apparent KD of MS2 coat protein (MS2 coat protein [2]; [9]): 26.2 nM; apparent KD of MS2 coat protein (MS2 coat protein [2]; [8]): 21.1 nM |
| AUUAUCAUGGUCAUUUAUAUUUCGUCAGAUACCAGACUAGAUAUAGUCCCUUGGCAGCUGUUACAUGAGGAUCACCCAUGUUAUU [JR_ExcTheophyA_Sub018] |  |  |  | apparent KD of MS2 coat protein (MS2 coat protein [2]; input ligand: arginine 13.2 mM): 44.7 nM; apparent KD of MS2 coat protein (MS2 coat protein [2]; [7]): 70.6 nM; apparent KD of MS2 coat protein (MS2 coat protein [2]; [8]): 103 nM |
| AGCACGGUGAUGGUAGCCGGACGAUAAGUACGAGGACCGGUACGGCCGCCACUCGAAGUCCUACGACAUGAGGAUCACCCAUGUA [Same State Trp A GF11] |  |  |  | apparent KD of MS2 coat protein (MS2 coat protein [2]; input ligand: arginine 13.2 mM): 30.4 nM; apparent KD of MS2 coat protein (MS2 coat protein [2]; [7]): 47 nM; apparent KD of MS2 coat protein (MS2 coat protein [2]; [9]): 73.6 nM |
